# Test results published in the RNAGym collection of RNA variant scans (doi:10.7554/elife.90254).
# B1: LINE1-full (parent)
# chain: UACGUAGGUGGUUUUCCCCUGAUAGUGCUAAGGGGGCCUGGAAGUUUGGACUGGGCAGAGCUCAACACAGCGUGGCAAAGUGGCUGUGGCUAGACUGCCUCUCUGGAUUCCUCGUCACUCAGCAGGGCAUCUCUGAGAGAAAUGCC
# Variants of: B1
# Assay: self-cleavage, relative activity (ratio to wild type); higher = more cleavage; in vitro, sequencing; the parent is a self-cleaving ribozyme
row,Variant,self-cleavage
1,A77U U100A,0.91
2,A77U U100C,1.58
3,A77U U104A,0.58
4,A77U U108C,1.57
5,A77U U109A,1.68
6,A77U U109G,0.61
7,A77U U112C,1.29
8,A77U U115A,0.82
9,A77U U119C,1.58
10,A77U U130A,1.01
11,A77U U130C,1.56
12,A77U U134G,1.47
13,A77U U143A,1.18
14,A78C,2.41
15,A78C A124G,0.94
16,A78C A136G,2.92
17,A78C A141G,1.74
18,A78C C90U,0.03
19,A78C U91C,1.24
20,A78C U96A,0.14
21,A78C U100C,2.41
22,A78C U119C,2.95
23,A78G,1.23
24,A78G A79G,1.14

row,Variant,self-cleavage
1,A78G A92G,0.11
2,A78G A92U,0.64
3,A78G A107G,1.26
4,A78G A107U,1.26
5,A78G A117C,1.69
6,A78G A117U,1.6
7,A78G A124U,1.45
8,A78G A129C,1.96
9,A78G A129G,1.65
10,A78G A136G,1.45
11,A78G A136U,1.79
12,A78G A138U,1
13,A78G A141G,1.38
14,A78G A141U,1.66
15,A78G A142G,1.21
16,A78G C95U,0.1
17,A78G C111U,0.93
18,A78G C113U,0.93
19,A78G C116A,0.87
20,A78G C133U,1.27
21,A78G C145U,1.28
22,A78G G86A,0.05
23,A78G G86U,0.08
24,A78G G89A,0.04

row,Variant,self-cleavage
1,A78G G97A,0.11
2,A78G G97U,0.03
3,A78G G105A,1.8
4,A78G G106U,0.66
5,A78G G122A,0.65
6,A78G G126U,1.75
7,A78G U81A,0.47
8,A78G U85C,0.11
9,A78G U85G,0.18
10,A78G U91A,0.38
11,A78G U96C,0.1
12,A78G U102A,1.24
13,A78G U104A,1.25
14,A78G U112A,0.7
15,A78G U112C,1.24
16,A78G U115A,1.12
17,A78G U119A,1.33
18,A78G U119C,1.55
19,A78G U134C,1.49
20,A78G U143A,1.11
21,A78G U143C,1.18
22,A78U,1.92
23,A78U A94G,0.46
24,A78U A94U,0.3

row,Variant,self-cleavage
1,A78U A129G,2.49
2,A78U A138G,2.06
3,A78U A138U,2.15
4,A78U A140C,2.32
5,A78U A140G,1.96
6,A78U C99U,1.07
7,A78U C110U,1.28
8,A78U G89A,0.07
9,A78U G89C,0.08
10,A78U G114A,1.75
11,A78U U81C,1.6
12,A78U U85A,0.11
13,A78U U87G,0.23
14,A78U U91A,0.85
15,A78U U91C,1.13
16,A78U U96C,0.17
17,A78U U100C,2.81
18,A78U U104G,0.55
19,A78U U108C,2.87
20,A78U U109A,1.84
21,A78U U112C,1.91
22,A78U U119A,1.82
23,A78U U130A,2.96
24,A78U U132C,1.92

row,Variant,self-cleavage
1,A78U U134A,2.08
2,A78U U134C,2.05
3,A79C U87A,0.18
4,A79C U96C,0.11
5,A79C U100C,2.76
6,A79C U108C,2.12
7,A79C U119C,1.82
8,A79G A94U,0.26
9,A79G A107U,1.41
10,A79G A117U,1.06
11,A79G A121G,1.21
12,A79G A124U,1.19
13,A79G A129G,1.62
14,A79G A136U,0.91
15,A79G A138G,1.22
16,A79G A138U,0.85
17,A79G A141G,1.35
18,A79G A142G,1.12
19,A79G C90A,0.04
20,A79G C95U,0.08
21,A79G C98A,0.2
22,A79G C98U,0.45
23,A79G C99U,0.38
24,A79G C113U,0.75

row,Variant,self-cleavage
1,A79G C120G,1.08
2,A79G C120U,1.26
3,A79G C128U,0.92
4,A79G C133A,1.12
5,A79G C146U,1.3
6,A79G G83A,1.03
7,A79G G86A,0.09
8,A79G G88A,0.03
9,A79G G89A,0.03
10,A79G G89C,0.05
11,A79G G93A,0.04
12,A79G G93U,0.06
13,A79G G97A,0.08
14,A79G G106U,1.48
15,A79G G139U,1.19
16,A79G G144A,1.5
17,A79G U81G,0.43
18,A79G U85A,0.08
19,A79G U85C,0.11
20,A79G U85G,0.11
21,A79G U87A,0.06
22,A79G U87C,0.17
23,A79G U91C,0.45
24,A79G U96G,0.16

row,Variant,self-cleavage
1,A79G U100C,1.46
2,A79G U102G,0.49
3,A79G U109G,0.8
4,A79G U112C,1.74
5,A79G U115C,1.32
6,A79G U119A,1.06
7,A79G U130C,1.45
8,A79G U130G,2.51
9,A79G U132A,1.25
10,A79G U132C,1.43
11,A79G U134A,1.07
12,A79G U143A,1.52
13,A79U A94G,0.26
14,A79U A94U,0.25
15,A79U A107G,2.26
16,A79U A121G,1.58
17,A79U A124G,0.87
18,A79U A124U,0.67
19,A79U A129G,2.13
20,A79U A136G,1.96
21,A79U A136U,2.6
22,A79U A138G,1.76
23,A79U A140G,1.85
24,A79U A141G,1.71

row,Variant,self-cleavage
1,A79U A142G,2.33
2,A79U C110A,1.64
3,A79U C111G,2.75
4,A79U G89C,0.02
5,A79U G89U,0.03
6,A79U G135C,2.76
7,A79U G137A,1.87
8,A79U U81C,0.4
9,A79U U85A,0.07
10,A79U U87A,0.05
11,A79U U91A,0.58
12,A79U U100C,2.92
13,A79U U100G,1.24
14,A79U U102C,1.04
15,A79U U104C,2.47
16,A79U U112A,1.97
17,A79U U119C,2.41
18,A79U U130C,2.63
19,A79U U132A,1.83
20,A79U U132C,2.24
21,G80A,1.93
22,G80A A107G,2.12
23,G80A A117G,2.22
24,G80A A121G,2.16

row,Variant,self-cleavage
1,G80A A124G,1
2,G80A A140U,1.58
3,G80A G144A,1.66
4,G80A U81C,1.98
5,G80A U91A,0.76
6,G80A U96C,0.18
7,G80A U104A,1.86
8,G80C,1.4
9,G80C A107G,1.52
10,G80C U96G,0.09
11,G80C U108C,0
12,G80C U132C,1.84
13,G80U,1.36
14,G80U A141G,1.1
15,G80U A141U,1.68
16,G80U G144A,1.57
17,G80U U87A,0.08
18,G80U U87C,0.2
19,G80U U100C,1.02
20,G80U U102A,1.34
21,G80U U109C,1.21
22,G80U U130C,0
23,U81A,1.89
24,U81A A117G,2.29

row,Variant,self-cleavage
1,U81A A117U,1.94
2,U81A A124C,2.45
3,U81A A124G,1.55
4,U81A A129U,2.57
5,U81A A136G,1.9
6,U81A A136U,2.35
7,U81A A138C,2.3
8,U81A A138G,2.16
9,U81A A141G,1.85
10,U81A A142G,2.07
11,U81A C103A,1.98
12,U81A C103U,0.63
13,U81A C120A,2.51
14,U81A C120U,0.99
15,U81A C133U,1.95
16,U81A C145A,2.25
17,U81A C146U,1.56
18,U81A G83U,1.3
19,U81A G88A,0.06
20,U81A G89A,0
21,U81A G126U,2.04
22,U81A G127A,1.72
23,U81A U85A,0.09
24,U81A U91C,0.77

row,Variant,self-cleavage
1,U81A U96A,0.07
2,U81A U96C,0.13
3,U81A U100A,2.09
4,U81A U109C,1.98
5,U81A U112A,1.7
6,U81A U115A,2.46
7,U81A U115C,2.44
8,U81A U119A,2.53
9,U81A U119C,2.53
10,U81A U130C,2.43
11,U81A U132A,1.7
12,U81A U132C,2.25
13,U81A U134A,2.49
14,U81A U134G,0.65
15,U81A U143C,1.95
16,U81C,1.37
17,U81C A92G,0
18,U81C A92U,0.95
19,U81C A94C,0
20,U81C A94G,0.37
21,U81C A94U,0.37
22,U81C A107G,1.21
23,U81C A117G,1.21
24,U81C A121G,1.38

row,Variant,self-cleavage
1,U81C A129U,1.48
2,U81C A136G,1.12
3,U81C A138G,1.14
4,U81C A140G,1.07
5,U81C A142C,1.18
6,U81C A142G,1.38
7,U81C C90U,0.03
8,U81C C95A,0.03
9,U81C C116A,0.59
10,U81C C116U,1.14
11,U81C C128U,1.19
12,U81C C133A,0.9
13,U81C G83A,1.46
14,U81C G86U,0.13
15,U81C G105A,1.06
16,U81C G122U,1.14
17,U81C G127U,1.22
18,U81C U85A,0.16
19,U81C U87C,0.4
20,U81C U100A,1.05
21,U81C U102A,1.05
22,U81C U102C,0.72
23,U81C U104A,1.07
24,U81C U108C,1.95

row,Variant,self-cleavage
1,U81C U112A,1.42
2,U81C U115A,1.44
3,U81C U115C,1.39
4,U81C U115G,1.1
5,U81C U119A,1.59
6,U81C U130G,1.84
7,U81C U132C,1.61
8,U81C U143A,1.22
9,U81G,1.32
10,U81G A92G,0.24
11,U81G A107G,1.01
12,U81G A117U,1.32
13,U81G A129G,1.48
14,U81G A136G,1.65
15,U81G A140G,1.4
16,U81G U87A,0.15
17,U81G U100C,1.43
18,U81G U104A,1.23
19,U81G U119C,1.54
20,U81G U134A,1
21,G82A A94U,0.33
22,G82A A107G,1.73
23,G82A A124G,1.3
24,G82A A138G,2.26

row,Variant,self-cleavage
1,G82A A138U,1.9
2,G82A A140G,0.93
3,G82A C84U,0.51
4,G82A G86U,0.1
5,G82A G105A,1.95
6,G82A G114U,2.07
7,G82A G126U,2.04
8,G82A U87C,0.17
9,G82A U96A,0.05
10,G82A U102A,2.12
11,G82A U108C,2.48
12,G82A U119A,1.96
13,G82A U130A,1.97
14,G82A U132C,2.22
15,G82A U143C,2.03
16,G82C U119A,2.14
17,G82U A92U,0.43
18,G82U A141G,1.54
19,G82U U102C,1.45
20,G82U U115C,0.84
21,G82U U134G,1.3
22,G82U U143C,1.72
